Assay results from patent US20250186597A1 (BRIGHT PEAK THERAPEUTICS, published 2025).
Positions count from the first letter of the chain named. Names and notes keep the numbering of the source.

B1: Avelumab/Bavencio (antibody, human IgG1, lambda)
heavy: not shown
light: QSALTQPASVSGSPGQSITISCTGTSSDVGGYNYVSWYQQHPGKAPKLMIYDVSNRPSGVSNRFSGSKSGNTASLTISGLQAEDEADYYCSSYTSSSTRVFGTGTKVTVLGQPKANPTVTLFPPSSEELQANKATLVCLISDFYPGAVTVAWKADGSPVKAGVETTKPSKQSNNKYAASSYLSLTPEQWKSHRSYSCQVTHEGSTVEKTVAPTECS
notes: also called MSB-0010718C; PF-06834635
B2: IL-18 polypeptide C141 (SEQ ID NO: 71; N-terminal G, E6K, V11I, C38A, K53A, T63A, C76A, C127A) (ligand)
chain: GYFGKLKSKLSIIRNLNDQVLFIDQGNRPLFEDMTDSDARDNAPRTIFIISMYADSQPRGMAVAISVKCEKISTLSAENKIISFKEMNPPDNIKDTKSDIIFFQRSVPGHDNKMQFESSSYEGYFLAAEKERDLFKLILKKEDELGDRSIMFTVQNED
B3: IL-18 polypeptide C192 (SEQ ID NO: 70; N-terminal G, E6K, V11I, C38A, M51G, K53A, T63A, C76A, C127A) (ligand)
chain: B2 chain with M52G
B4: IL-18 polypeptide C145 (V11I, C38A, K53A, S55A, C76A, C127A) (ligand)
chain: YFGKLESKLSIIRNLNDQVLFIDQGNRPLFEDMTDSDARDNAPRTIFIISMYADAQPRGMAVTISVKCEKISTLSAENKIISFKEMNPPDNIKDTKSDIIFFQRSVPGHDNKMQFESSSYEGYFLAAEKERDLFKLILKKEDELGDRSIMFTVQNED
B5: IL-18 polypeptide C166 (V11I, C38A, S55T, C76A, C127A) (ligand)
chain: B4 chain with A53K, A55T
B6: IL-18 polypeptide C158 (V11I, C38A, K53A, C76A, G108A, C127A) (ligand)
chain: B4 chain with A55S, G108A
B7: IL-18 polypeptide C179 (E6K, K8E, V11I, C38A, K53A, T63A, C76A, Q103R, C127A) (ligand)
chain: B4 chain with E6K, K8E, A55S, T63A, Q103R
B8: IL-18 polypeptide C149 (V11I, E31A, C38A, K53A, C76A, C127A) (ligand)
chain: B4 chain with E31A, A55S
B9: IL-18 polypeptide C162 (K8E, V11I, C38A, C76A, Q103R, C127A) (ligand)
chain: B4 chain with K8E, A53K, A55S, Q103R
B10: IL-18 polypeptide C150 (V11I, T34A, C38A, K53A, C76A, C127A) (ligand)
chain: B4 chain with T34A, A55S
B11: IL-18 polypeptide C182 (E6K, V11I, C38A, K53A, T63A, C76A, C127A, V153Y) (ligand)
chain: B4 chain with E6K, A55S, T63A, V153Y
B12: IL-18 polypeptide C148 (F2A, V11I, C38A, K53A, C76A, C127A) (ligand)
chain: B4 chain with F2A, A55S
B13: IL-18 polypeptide C160 (V11I, C38A, K53A, C76A, D110A, C127A) (ligand)
chain: B4 chain with A55S, D110A
B14: IL-18 polypeptide C155 (V11I, C38A, D40A, K53A, C76A, C127A) (ligand)
chain: B4 chain with D40A, A55S
B15: IL-18 polypeptide C184 (E6R, V11I, C38A, K53A, T63A, C76A, C127A) (ligand)
chain: B4 chain with E6R, A55S, T63A
B16: IL-18 polypeptide C153 (V11I, D37A, C38A, K53A, C76A, C127A) (ligand)
chain: B4 chain with D37A, A55S
B17: IL-18 polypeptide C157 (V11I, C38A, K53A, C76A, C127A, D132A) (ligand)
chain: B4 chain with A55S, D132A
B18: IL-18 polypeptide C161 (K8R, V11I, C38A, C76A, Q103E, C127A) (ligand)
chain: B4 chain with K8R, A53K, A55S, Q103E
B19: IL-18 polypeptide C159 (V11I, C38A, K53A, C76A, H109A, C127A) (ligand)
chain: B4 chain with A55S, H109A
B20: IL-18 polypeptide C142 (Y1M, E6K, V11I, C38A, K53A, T63A, C76A, C127A) (ligand)
chain: B4 chain with Y1M, E6K, A55S, T63A
B21: IL-18 polypeptide C183 (SEQ ID NO: 69; E6K, V11I, C38A, M51G, K53A, T63A, C76A, C127A) (ligand)
chain: B4 chain with E6K, M51G, A55S, T63A
B22: IL-18 polypeptide C174 (K8L, E6K, V11I, C38A, K53A, T63A, C76A, C127A) (ligand)
chain: B4 chain with E6K, K8L, A55S, T63A
B23: IL-18 polypeptide C168 (V11I, C38A, C76A, S105K, C127A) (ligand)
chain: B4 chain with A53K, A55S, S105K
B24: IL-18 polypeptide C176 (E6K, V11I, C38A, I49M, K53A, T63A, C76A, C127A) (ligand)
chain: B4 chain with E6K, I49M, A55S, T63A
B25: IL-18 polypeptide C165 (V11I, C38A, S55R, C76A, C127A) (ligand)
chain: B4 chain with A53K, A55R
B26: IL-18 polypeptide C151 (V11I, D35A, C38A, K53A, C76A, C127A) (ligand)
chain: B4 chain with D35A, A55S
B27: IL-18 polypeptide C163 (V11I, C38A, C76A, Q103K, C127A) (ligand)
chain: B4 chain with A53K, A55S, Q103K
B28: IL-18 polypeptide C181 (E6K, V11I, C38A, K53A, T63A, C76A, C127A, V153E) (ligand)
chain: B4 chain with E6K, A55S, T63A, V153E
B29: IL-18 polypeptide C147 (V11I, C38A, K53A, D54A, C76A, C127A) (ligand)
chain: B4 chain with D54A, A55S
B30: IL-18 polypeptide C178 (E6K, V11I, C38A, K53A, T63A, C76A, Q103R, C127A) (ligand)
chain: B4 chain with E6K, A55S, T63A, Q103R
B31: IL-18 polypeptide C154 (V11I, E31A, D37A, C38A, K53A, C76A, C127A) (ligand)
chain: B4 chain with E31A, D37A, A55S
B32: IL-18 polypeptide C167 (V11I, C38A, C76A, S105I, C127A) (ligand)
chain: B4 chain with A53K, A55S, S105I
B33: IL-18 polypeptide C152 (V11I, S36A, C38A, K53A, C76A, C127A) (ligand)
chain: B4 chain with S36A, A55S
B34: IL-18 polypeptide C177 (E6K, V11I, C38A, I49R, K53A, T63A, C76A, C127A) (ligand)
chain: B4 chain with E6K, I49R, A55S, T63A
B35: IL-18 polypeptide C164 (V11I, C38A, S55H, C76A, C127A) (ligand)
chain: B4 chain with A53K, A55H
B36: IL-18 polypeptide C156 (V11I, C38A, N41A, K53A, C76A, C127A) (ligand)
chain: B4 chain with N41A, A55S
B37: IL-18 polypeptide C146 (SEQ ID NO: 68; V11I, C38A, M51G, K53A, C76A, C127A) (ligand)
chain: B4 chain with M51G, A55S
B38: IL-18 polypeptide C140 (SEQ ID NO: 72; N-terminal 4xG, E6K, V11I, C38A, K53A, T63A, C76A, C127A) (ligand)
chain: GGGGYFGKLKSKLSIIRNLNDQVLFIDQGNRPLFEDMTDSDARDNAPRTIFIISMYADSQPRGMAVAISVKCEKISTLSAENKIISFKEMNPPDNIKDTKSDIIFFQRSVPGHDNKMQFESSSYEGYFLAAEKERDLFKLILKKEDELGDRSIMFTVQNED

These binders were tested against T1, recombinant biotinylated human FcRn (human, UniProt P55899 24-297; P61769 21-119, limits assumed, biotinylated (site not stated)) (assay: AlphaLISA competition at pH 6; competitor: human IgG on acceptor beads).
T1 construct: also called human neonatal Fc receptor (FcRn); human Fc neonatal receptor

Binder	Kd
B1	5360 pM

Each binder was assayed against T2, IL-18R on HEK-Blue IL18R reporter cells (InvivoGen, #hkb-hmi118) (UniProt Q13478 19-541; O95256 20-599, limits assumed) (assay: cell-based or functional assay).
T2 sequence (looked up) 1: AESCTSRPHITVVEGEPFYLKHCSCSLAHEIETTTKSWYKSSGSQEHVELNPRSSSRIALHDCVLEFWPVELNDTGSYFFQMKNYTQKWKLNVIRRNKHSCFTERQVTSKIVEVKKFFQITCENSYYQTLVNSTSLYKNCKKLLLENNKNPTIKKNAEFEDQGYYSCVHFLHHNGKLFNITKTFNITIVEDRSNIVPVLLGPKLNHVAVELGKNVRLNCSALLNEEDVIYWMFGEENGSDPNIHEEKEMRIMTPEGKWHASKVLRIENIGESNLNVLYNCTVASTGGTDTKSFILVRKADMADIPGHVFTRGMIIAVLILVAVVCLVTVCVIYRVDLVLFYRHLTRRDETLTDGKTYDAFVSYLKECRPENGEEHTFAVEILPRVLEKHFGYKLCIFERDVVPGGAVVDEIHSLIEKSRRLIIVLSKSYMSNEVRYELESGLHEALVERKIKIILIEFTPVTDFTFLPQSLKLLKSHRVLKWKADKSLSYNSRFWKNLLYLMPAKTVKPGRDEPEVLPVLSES
T2 sequence (looked up) 2: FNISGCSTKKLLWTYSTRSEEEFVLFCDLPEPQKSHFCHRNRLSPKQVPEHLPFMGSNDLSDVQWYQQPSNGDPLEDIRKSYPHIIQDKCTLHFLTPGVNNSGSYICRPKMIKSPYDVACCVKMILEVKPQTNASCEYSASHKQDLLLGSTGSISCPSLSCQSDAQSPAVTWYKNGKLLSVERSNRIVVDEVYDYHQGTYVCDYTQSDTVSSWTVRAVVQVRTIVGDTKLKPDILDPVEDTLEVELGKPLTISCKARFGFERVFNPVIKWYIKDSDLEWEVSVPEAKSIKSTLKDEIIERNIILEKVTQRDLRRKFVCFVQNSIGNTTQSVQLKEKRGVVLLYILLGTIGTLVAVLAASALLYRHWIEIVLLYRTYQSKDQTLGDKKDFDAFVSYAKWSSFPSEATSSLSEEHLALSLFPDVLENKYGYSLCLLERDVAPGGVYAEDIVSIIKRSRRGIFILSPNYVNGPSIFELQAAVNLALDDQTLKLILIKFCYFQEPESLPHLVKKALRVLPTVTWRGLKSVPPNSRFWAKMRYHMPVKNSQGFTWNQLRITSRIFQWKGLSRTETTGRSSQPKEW

Binder	EC50, HEK-Blue IL18R reporter assay
B2	1.68 pM
B3	14 pM
B4	3.63 pM
B5	4.73 pM
B6	15.6 pM
B7	0.4 pM
B8	6.6 pM
B9	2.3 pM
B10	0.7 pM
B11	0.08 pM
B12	7.28 pM
B13	2.02 pM
B14	0.52 pM
B15	0.04 pM
B16	14.1 pM
B17	1.95 pM
B18	2.01 pM
B19	19.5 pM
B20	0.02 pM

Binder	EC50, HEK-Blue IL18R reporter assay
B21	0.1 pM
B22	0.29 pM
B23	7.73 pM
B24	0.07 pM
B25	1.91 pM
B26	13.1 pM
B27	1.5 pM
B28	0.1 pM
B29	1 pM
B30	0.26 pM
B31	11.9 pM
B32	5.37 pM
B33	0.25 pM
B34	0.04 pM
B35	3.14 pM
B36	11.7 pM
B37	0.8 pM
B38	2.5 pM
